Measured values taken from publication PMC6823245, “Positive Modulation of Angiotensin II Type 1 Receptor–Mediated Signaling by LVV–Hemorphin-7” (Frontiers in Pharmacology, 2019).
Each block holds one molecule with its values, some of them ahead of it.

Legend:
AT1R (AT1R-WT) = biological target: T1, AT1R (AT1R-WT) (Homo sapiens, UniProt P30556); details: 10 µM irbesartan 15 min, then 5 nM AngII ± 10 µM LVV–hemorphin-7, 30 min, 37°C (Figure 5D)
T1 sequence (P30556 1-359): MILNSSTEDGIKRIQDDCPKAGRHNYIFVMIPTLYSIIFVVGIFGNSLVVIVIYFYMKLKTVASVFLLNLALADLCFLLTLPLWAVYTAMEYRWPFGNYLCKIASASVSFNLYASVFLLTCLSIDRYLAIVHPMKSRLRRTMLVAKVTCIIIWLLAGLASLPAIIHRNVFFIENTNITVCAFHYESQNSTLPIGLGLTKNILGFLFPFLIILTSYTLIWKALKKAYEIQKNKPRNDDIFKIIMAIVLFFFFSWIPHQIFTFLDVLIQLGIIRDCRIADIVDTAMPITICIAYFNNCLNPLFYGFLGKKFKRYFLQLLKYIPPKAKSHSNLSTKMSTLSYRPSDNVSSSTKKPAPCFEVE

[1] = biological target: T2, AT1R (AT1R-Rluc/Venus-Gαq coupling) (Homo sapiens, UniProt P30556); assay: BRET between AT1R-Rluc and Venus-Gαq (dose-response / 30 min endpoint) in HEK293 cells; assay type: cell-based; parameters: expressed in transfected cells; host or cells: HEK293, transient transfection (Lipofectamine 2000)
T2 sequence (P30556 1-359): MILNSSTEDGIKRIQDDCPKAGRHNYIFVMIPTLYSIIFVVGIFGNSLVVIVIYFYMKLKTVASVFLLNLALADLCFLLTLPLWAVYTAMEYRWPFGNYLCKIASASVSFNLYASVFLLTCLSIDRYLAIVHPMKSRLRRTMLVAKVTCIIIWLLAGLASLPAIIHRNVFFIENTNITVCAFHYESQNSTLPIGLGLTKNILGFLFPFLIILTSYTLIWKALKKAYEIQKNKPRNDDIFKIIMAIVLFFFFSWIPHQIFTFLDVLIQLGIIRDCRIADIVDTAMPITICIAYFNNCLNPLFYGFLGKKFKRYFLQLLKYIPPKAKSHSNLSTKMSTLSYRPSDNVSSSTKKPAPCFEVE
Description: All assays were carried out 48 h posttransfection.
BRET technology was used for dose–response analysis as previously described ([Ayoub et al., 2015]; [Ayoub, 2016]; [Ayoub et al., 2016]). […] Following treatment, 10 µl of coelenterazine h (Promega) in PBS was added to a final concentration of 5 µM, and BRET measurements were carried out using the Tristar 2 multilabel plate reader (Berthold, Germany) allowing sequential measurements of light emission at 480 and 540 nm.

AT1R = details: ref Li et al., 2018, cited from earlier work
Excerpt: Our seminal finding is of significant importance to hemorphin and GPCR pharmacology and their implication in human physiology. Indeed, in addition to hemorphin’s effect on opioid receptors ([Brantl et al., 1986]; [Davis et al., 1989]; [Liebmann et al., 1989]; [Glämsta et al., 1992]; [Yukhananov et al., 1994]; [Nyberg et al., 1997]; [Szikra et al., 2001]; [Cheng et al., 2012]), we report yet another GPCR member (AT1R) that is a target of hemorphins with the plausible implication in the physiology and pathophysiology of vascular and renal systems. The action of LVV–hemorphin-7 on AT1R is consist ...

[2] = among hemorphin peptides; ref not attached to the sentence (next sentence: Karelin et al., 1994; Moeller et al., 1997); cited from earlier work
Excerpt: Hemorphins are endogenous hemoglobin-derived peptides that were initially reported to have opiate-like activity. They are normally released from hemoglobin beta-chain during physiological or pathophysiological conditions. These peptides are 4 to 10 amino acids long and share a common Tyr-Pro-Trp-Thr tetrapeptide core (YPWT or hemorphin-4) ([Liebmann et al., 1989]; [Zhao et al., 1995]; [Ivanov et al., 1997]; [Nyberg et al., 1997]). A number of different hemorphin peptides have been identified including hemorphin-4, hemorphin-7, and LVV–hemorphin-4, -6, and -7 ([Brantl et al., 1986]; [Piot et al ...

[3] = biological target: T2, AT1R (AT1R-Rluc/Venus-Gαq coupling); assay: Real-time BRET kinetics, AT1R-Rluc and Venus-Gαq in HEK293 cells; details: 10 µM alone, sequential protocol, after 35 min (Figure 3C)
Description: HEK293 cells were maintained at 37°C, 5% CO2 in complete medium (Dulbecco modified Eagle medium (DMEM) containing 0.3 mg/ml glutamine, 100 IU/ml penicillin, and 100 µg/ml streptomycin) supplemented with 10% fetal calf serum (GIBCO BRL, Carlsbad, CA, USA). Transient transfections for BRET were carried out in 96-well plates and IP1 and ERK1/2 assays in six-well plates using Lipofectamine 2000 (Invitrogen). […] The plasmid solution was then mixed with 25 µl of serum-free DMEM containing 0.5 µl of Lipofectamine 2000 and incubated for 20 min at room temperature. Cells (10^5 in 150 µl/well) resuspended in DMEM supplemented with 10% fetal calf serum (FCS) were then incubated with the final DNA-Lipofectamine 2000 mix (50 µl/well) and seeded in 96-well plates. All assays were carried out 48 h posttransfection.
For the real-time BRET kinetics, different protocols were used. Cells were first washed with 50 µl/well of PBS and resuspended in 40 µl/well of PBS containing coelenterazine h (5 µM), and BRET signals were measured in real time for ∼5 min to determine the baseline.
All kinetic and the sigmoidal dose–response curves were fitted to appropriate nonlinear regression equations using GraphPad Prism software (San Diego, CA, USA). Statistical analyses were performed with two-way ANOVA and Tukey multiple-comparisons test to determine statistical significance between the different conditions.

[4] = biological target: AT1R-RlucII (angiotensin II type 1 receptor fused to Renilla luciferase) (human) (UniProt P30556)
[5] = biological target: AT1R-RlucII (angiotensin II type 1 receptor fused to Renilla luciferase) (human) (UniProt P30556); remark: listed apart in the source
[6] = biological target: AT1R-RlucII (angiotensin II type 1 receptor fused to Renilla luciferase) (human) (UniProt P30556); remark: listed apart in the source
[7] = biological target: AT1R-RlucII (angiotensin II type 1 receptor fused to Renilla luciferase) (human) (UniProt P30556); remark: listed apart in the source
[8] = biological target: untagged AT1R (AT1R-WT) (human) (UniProt P30556)

Molecule: CCCCC1=NC2(CCCC2)C(=O)N1Cc1ccc(-c2ccccc2-c2nnn[nH]2)cc1 [irbesartan]
- inhibition of AngII-mediated IP1 production and its potentiation by LVV–hemorphin-7 (AT1R (AT1R-WT)): completely abolished
- inhibition of AngII-mediated BRET signals and of their potentiation by LVV–hemorphin-7 ([1]; 10 µM irbesartan 15 min, then 10 nM AngII ± 10 µM LVV–hemorphin-7, 30 min, 37°C (Figure 4A), n = 3): full inhibition

Molecule: NC(CCS)C(=O)O (centres unmarked) [homocysteine]
- binding site on AT1R (AT1R; binding experiments): binding of homocysteine to the orthosteric binding site of AT1R
- positive allosteric modulation of AT1R (AT1R): PAM of AT1R

Molecule: CC(C)C[C@H](N)C(=O)N[C@H](C(=O)N[C@H](C(=O)N[C@@H](Cc1ccc(O)cc1)C(=O)N1CCC[C@H]1C(=O)N[C@@H](Cc1c[nH]c2ccccc12)C(=O)N[C@H](C(=O)N[C@@H](CCC(N)=O)C(=O)N[C@@H](CCCNC(=N)N)C(=O)N[C@@H](Cc1ccccc1)C(=O)O)[C@@H](C)O)C(C)C)C(C)C [LVV–hemorphin-7]
- stability [2]: most stable form
- BRET increase, LVV–hemorphin-7 alone [3]: ~10%
- EC50 of potentiation of AngII-mediated BRET (in words) ([1]; 15 min preincubation, then 10 nM AngII 20 min (Figure 2E)): micromolar range

- Log EC50 of LVV–hemorphin-7 for potentiation of the BRET increase between AT1R-Rluc and Venus-Gαq induced by 10 nM AngII (log (concentration unit not given)) [4]: -5.41
- Log EC50 of LVV–hemorphin-7 for potentiation of the BRET increase between AT1R-Rluc and yPET–β-arrestin 2 induced by 10 nM AngII (log (concentration unit not given)) [4]: -5.48
- E max (%) of AngII with LVV–hemorphin-7, BRET dose–response, AT1R-Rluc + Venus-Gαq; AngII without LVV–hemorphin-7 taken as 100% [5]: 109%
- E max (%) of AngII with LVV–hemorphin-7, BRET dose–response, AT1R-Rluc + yPET–β-arrestin 2; AngII without LVV–hemorphin-7 taken as 100% [5]: 104%
- E max (%) of AngII with LVV–hemorphin-7, BRET kinetics 1 (Figures 3A, B), AT1R-Rluc + Venus-Gαq; 10 nM AngII alone taken as 100% [5]: 263%
- E max (%) of AngII with LVV–hemorphin-7, BRET kinetics 1 (Figures 3A, B), AT1R-Rluc + yPET–β-arrestin 2; 10 nM AngII alone taken as 100% [5]: 240%
- E max (%) of AngII with LVV–hemorphin-7, BRET kinetics 2 (Figures 3C, D), AT1R-Rluc + Venus-Gαq; 10 nM AngII alone taken as 100% [5]: 171%
- E max (%) of AngII with LVV–hemorphin-7, BRET kinetics 2 (Figures 3C, D), AT1R-Rluc + yPET–β-arrestin 2; 10 nM AngII alone taken as 100% [5]: 200%
- BRET increase in sequential real-time kinetics (AT1R-Rluc with Venus-Gαq or yPET–β-arrestin 2), 10 µM LVV–hemorphin-7 alone, after 35 min [6]: 10%
- ERK1/2 phosphorylation (folds over untreated cells), cells coexpressing AT1R-Rluc and Venus-Gαq, cotreatment with 10 nM AngII and 10 µM LVV–hemorphin-7 for 5 min [7]: 6.71 folds
- ERK1/2 phosphorylation (folds over untreated cells), cells coexpressing AT1R-Rluc and Venus-Gαq, pretreatment with LVV–hemorphin-7 for 15 min followed by AngII for 5 min [7]: 6.7 folds
- ERK1/2 phosphorylation (folds over untreated cells), cells expressing AT1R-WT, 10 µM LVV–hemorphin-7 alone, 5 min [8]: 6.74 folds
- ERK1/2 phosphorylation (folds over untreated cells), cells expressing AT1R-WT, cotreatment with AngII and LVV–hemorphin-7 [8]: 12.8 folds
Molecule: LVVYPWTQRF [LVV–hemorphin-7]
